Assay [1] has as its target SARS-CoV-2 D614G mutant S trimer (design Spike_ΔCter_ΔFurin_2P_T4_His with D614G) (SARS-CoV-2 | bacteriophage T4) (UniProt P0DTC2). As to the kind of experiment: negative-stain electron microscopy.
For assay [2], the target named is SARS-CoV-2 Spike trimer (Wuhan), design Spike_ΔCter_ΔFurin_2P_T4_His (SARS-CoV-2 | bacteriophage T4) (UniProt P0DTC2). As to the kind of experiment: negative-stain electron microscopy.
Assay [3] has the same target. As to the kind of experiment: SEC. In general terms: In gel filtration, larger molecules generally elute earlier.

As to “SARS-CoV-2 D614G mutant S trimer (design Spike_ΔCter_ΔFurin_2P_T4_His with D614G) (from UniProt P0DTC2 14-1213) (complex)”, in assay [1], the stoichiometry N (as a rule, the number of molecules, sites or subunits per partner or assembly) was found to be 3. As for “SARS-CoV-2 Spike trimer (Wuhan), design Spike_ΔCter_ΔFurin_2P_T4_His (from UniProt P0DTC2 14-1213) (complex)”, the stoichiometry N in assay [2] and in assay [3] was 3 throughout.

Source of the values: publication doi:10.1101/2020.11.15.382044.
